The record followed here is patent US20230416345A1, “NEW TYPE II COLLAGEN BINDING PROTEINS” (Navigo Proteins GmbH, priority 2020, published 2023).

The target of assay [1] is T1, human collagen type I (h Col I) (Homo sapiens, UniProt P02452+P08123).
T1 construct: purchased Sigma C5483-1MG
Nature of the assay: ELISA specificity vs human collagen type I. It is filed as binding. The method, then: (§1) High binding plates (Greiner, 781061) were immobilized with 2.5 μg/ml recombinant human collagen type II (h Col II, Chondrex, CHX-20051), rabbit collagen type II (rbCol II, prepared from rabbit eyes), porcine collagen type II (p Col II, prepared from porcine eyes), human collagen type I, (h Col I, Sigma, C5483-1MG), human collagen type V (h Col V, Abcam, ab7537), human collagen type III (h Col Ill, Abcam, ab7535) and 67B89 (domain of fibronectin, produced in E. coli) respectively over night at 4° C. ELISA-plates were washed 3 times with PBST (PBS+ 0.1% Tween) and blocked with 3% BSA/0.5% Tween/PBS 2 h at RT. After washing with PBST, dilution series of 1.1 μM to 7×10^−4 nM of dimers (CID 211999, CID 212000), dilution series of 100 nM to 7×10^−6 nM of tetramers (CID 212001 and CID 212704) and dilution series of 10 μM to 2 nM of dimer (CID 212705) were incubated on ELISA-plates 1 h at rt. Plates were washed with PBST and incubated with biotinylated anti-StrepTag-ab (Antikörper-online, ABIN1573895) with a dilution of 1:10.000 for 1 h at rt. The binding was visualized with a-rabbit-IgG-HRP (Sigma, A9169) with a dilution of 1:10.000 and as substrate TMB Plus von KEM EN TEC Diagnostic, Kat-Nr. 4395.
(In general: ELISA stands for enzyme-linked immunosorbent assay.)

The target in assay [2] is T2, human collagen type III (Homo sapiens, UniProt P02461).
T2 construct: purchased Abcam ab7535
T2 sequence (P02461 154-1221 limits assumed): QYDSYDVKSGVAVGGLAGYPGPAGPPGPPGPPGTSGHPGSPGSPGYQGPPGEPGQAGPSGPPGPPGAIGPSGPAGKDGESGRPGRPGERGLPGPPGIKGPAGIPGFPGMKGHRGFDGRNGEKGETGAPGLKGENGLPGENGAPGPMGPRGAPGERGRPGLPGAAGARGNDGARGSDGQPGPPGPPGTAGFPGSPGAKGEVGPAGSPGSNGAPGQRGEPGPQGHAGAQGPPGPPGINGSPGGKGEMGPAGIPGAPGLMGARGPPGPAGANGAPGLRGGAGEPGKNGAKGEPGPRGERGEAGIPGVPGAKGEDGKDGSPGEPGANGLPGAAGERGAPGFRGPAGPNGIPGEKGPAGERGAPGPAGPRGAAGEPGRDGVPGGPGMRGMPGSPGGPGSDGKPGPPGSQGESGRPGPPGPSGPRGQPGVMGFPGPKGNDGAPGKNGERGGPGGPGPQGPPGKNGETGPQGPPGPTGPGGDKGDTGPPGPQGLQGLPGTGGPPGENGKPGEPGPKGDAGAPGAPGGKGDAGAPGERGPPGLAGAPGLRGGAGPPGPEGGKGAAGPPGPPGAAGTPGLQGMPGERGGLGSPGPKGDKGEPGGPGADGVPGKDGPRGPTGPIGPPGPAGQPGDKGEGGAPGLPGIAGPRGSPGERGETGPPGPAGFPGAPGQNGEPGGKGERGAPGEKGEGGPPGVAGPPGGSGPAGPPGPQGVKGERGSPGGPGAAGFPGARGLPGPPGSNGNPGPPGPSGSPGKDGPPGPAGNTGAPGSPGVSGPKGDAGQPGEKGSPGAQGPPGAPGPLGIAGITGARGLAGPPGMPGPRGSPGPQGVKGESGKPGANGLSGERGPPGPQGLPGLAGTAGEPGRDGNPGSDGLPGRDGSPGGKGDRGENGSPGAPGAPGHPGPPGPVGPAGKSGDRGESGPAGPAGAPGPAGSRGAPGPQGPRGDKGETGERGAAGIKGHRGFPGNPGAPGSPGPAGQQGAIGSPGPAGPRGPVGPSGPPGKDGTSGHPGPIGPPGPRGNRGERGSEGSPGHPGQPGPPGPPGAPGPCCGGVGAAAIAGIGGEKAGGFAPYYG
Description: ELISA specificity vs human collagen type III. It is filed as binding. The procedure: as §1

Assay [3] deals with T3, human collagen type V (h Col V) (Homo sapiens, UniProt P05997+P20908).
T3 construct: purchased Abcam ab7537
Nature of the assay: ELISA specificity vs human collagen type V. In kind it is binding. The procedure:
as §1

Assay [4] deals with T4, 67B89 (domain of fibronectin) (Homo sapiens, UniProt P02751).
T4 construct: unrelated fibronectin domain EDB (67B89) could be observed; made in house; host or cells: E. coli
Description: ELISA specificity vs 67B89. In kind it is binding. The method, then:
as §1

The subject of assay [5] is pig eye sections. Description: Immunohistochemistry staining on pig eye sections. Particulars: formalin-fixed paraffin-embedded pig eyes; 5 μM or 500 nM protein, 45 min. The method, then:
Sections of formalin-fixed paraffin-embedded pig eyes were deparaffinated with xylol and rehydrated with a descending concentration series of ethanol. For antigen retrieval slices were incubated in TE-buffer, pH 9.0 for 5 min. at 110° C. After blocking of endogenous peroxidases with peroxidase blocking solution (Novolink Polymer™ Detection System, Leica, RE7140-K) slices were incubated with 5 μM or 500 nM of CID 211999 (dimer), CID 212000 (dimer), CID 212001 (tetramer) for 45 min at rt. Subsequently binding of proteins was detected with rabbit-anti-StrepTag-antibody (Genscript, A00026) at a dilution of 1:500 and Novolink Polymer™ Detection System. Anti-Collagen Type II antibody (Abcam, #ab34712) at a dilution of 1:10 served as positive control. Tissue slices were incubated with antibodies for 30 min. Washing steps were performed with TBS pH 7.6. For visualization, AEC-staining (Dako, K3461) was used and after washing with water, nuclei were stained with Mayers Hamalum solution (Merck, 1.09249.0500). Results see FIG. 5.

T4 sequence (P02751 1089-1540 limits assumed): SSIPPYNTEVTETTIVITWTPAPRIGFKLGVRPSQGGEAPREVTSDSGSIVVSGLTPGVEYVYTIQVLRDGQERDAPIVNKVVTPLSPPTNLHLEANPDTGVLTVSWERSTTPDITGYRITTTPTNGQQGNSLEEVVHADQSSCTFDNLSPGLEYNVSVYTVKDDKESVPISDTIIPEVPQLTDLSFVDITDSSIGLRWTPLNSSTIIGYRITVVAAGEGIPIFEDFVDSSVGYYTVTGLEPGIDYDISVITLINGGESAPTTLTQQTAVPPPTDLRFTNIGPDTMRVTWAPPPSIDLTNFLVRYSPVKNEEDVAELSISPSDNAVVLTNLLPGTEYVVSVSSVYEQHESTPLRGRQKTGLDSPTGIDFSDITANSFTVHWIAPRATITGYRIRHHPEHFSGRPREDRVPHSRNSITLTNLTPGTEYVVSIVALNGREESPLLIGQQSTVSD
T1 sequence (P02452 162-1218 limits assumed): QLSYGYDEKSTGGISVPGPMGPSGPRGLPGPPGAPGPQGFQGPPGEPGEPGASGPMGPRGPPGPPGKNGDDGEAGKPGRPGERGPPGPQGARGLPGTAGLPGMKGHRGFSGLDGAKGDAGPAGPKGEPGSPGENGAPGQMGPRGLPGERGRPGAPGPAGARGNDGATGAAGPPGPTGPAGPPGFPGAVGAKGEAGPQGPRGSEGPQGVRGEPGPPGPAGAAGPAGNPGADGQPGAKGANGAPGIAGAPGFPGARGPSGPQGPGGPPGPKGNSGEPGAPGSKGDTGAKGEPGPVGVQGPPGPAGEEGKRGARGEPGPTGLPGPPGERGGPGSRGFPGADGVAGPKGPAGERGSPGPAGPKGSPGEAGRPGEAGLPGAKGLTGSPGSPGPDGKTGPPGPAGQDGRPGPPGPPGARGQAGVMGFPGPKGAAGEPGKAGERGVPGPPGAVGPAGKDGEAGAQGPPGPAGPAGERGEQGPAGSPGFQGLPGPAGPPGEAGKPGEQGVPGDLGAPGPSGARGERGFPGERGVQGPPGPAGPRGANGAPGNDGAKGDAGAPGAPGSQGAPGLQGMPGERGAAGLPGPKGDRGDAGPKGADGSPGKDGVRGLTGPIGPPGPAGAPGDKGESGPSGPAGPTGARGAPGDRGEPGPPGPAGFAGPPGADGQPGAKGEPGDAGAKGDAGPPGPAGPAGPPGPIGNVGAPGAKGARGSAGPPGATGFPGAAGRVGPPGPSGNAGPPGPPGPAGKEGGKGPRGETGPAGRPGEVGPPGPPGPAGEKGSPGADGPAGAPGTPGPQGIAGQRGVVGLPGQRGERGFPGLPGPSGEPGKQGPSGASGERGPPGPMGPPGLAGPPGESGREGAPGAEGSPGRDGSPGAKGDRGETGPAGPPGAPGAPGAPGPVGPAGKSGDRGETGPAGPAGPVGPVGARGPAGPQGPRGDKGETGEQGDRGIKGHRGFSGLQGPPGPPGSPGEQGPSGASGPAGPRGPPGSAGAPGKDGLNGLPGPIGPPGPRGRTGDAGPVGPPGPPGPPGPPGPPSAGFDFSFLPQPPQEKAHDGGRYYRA
T1 sequence (P08123 80-1119 limits assumed): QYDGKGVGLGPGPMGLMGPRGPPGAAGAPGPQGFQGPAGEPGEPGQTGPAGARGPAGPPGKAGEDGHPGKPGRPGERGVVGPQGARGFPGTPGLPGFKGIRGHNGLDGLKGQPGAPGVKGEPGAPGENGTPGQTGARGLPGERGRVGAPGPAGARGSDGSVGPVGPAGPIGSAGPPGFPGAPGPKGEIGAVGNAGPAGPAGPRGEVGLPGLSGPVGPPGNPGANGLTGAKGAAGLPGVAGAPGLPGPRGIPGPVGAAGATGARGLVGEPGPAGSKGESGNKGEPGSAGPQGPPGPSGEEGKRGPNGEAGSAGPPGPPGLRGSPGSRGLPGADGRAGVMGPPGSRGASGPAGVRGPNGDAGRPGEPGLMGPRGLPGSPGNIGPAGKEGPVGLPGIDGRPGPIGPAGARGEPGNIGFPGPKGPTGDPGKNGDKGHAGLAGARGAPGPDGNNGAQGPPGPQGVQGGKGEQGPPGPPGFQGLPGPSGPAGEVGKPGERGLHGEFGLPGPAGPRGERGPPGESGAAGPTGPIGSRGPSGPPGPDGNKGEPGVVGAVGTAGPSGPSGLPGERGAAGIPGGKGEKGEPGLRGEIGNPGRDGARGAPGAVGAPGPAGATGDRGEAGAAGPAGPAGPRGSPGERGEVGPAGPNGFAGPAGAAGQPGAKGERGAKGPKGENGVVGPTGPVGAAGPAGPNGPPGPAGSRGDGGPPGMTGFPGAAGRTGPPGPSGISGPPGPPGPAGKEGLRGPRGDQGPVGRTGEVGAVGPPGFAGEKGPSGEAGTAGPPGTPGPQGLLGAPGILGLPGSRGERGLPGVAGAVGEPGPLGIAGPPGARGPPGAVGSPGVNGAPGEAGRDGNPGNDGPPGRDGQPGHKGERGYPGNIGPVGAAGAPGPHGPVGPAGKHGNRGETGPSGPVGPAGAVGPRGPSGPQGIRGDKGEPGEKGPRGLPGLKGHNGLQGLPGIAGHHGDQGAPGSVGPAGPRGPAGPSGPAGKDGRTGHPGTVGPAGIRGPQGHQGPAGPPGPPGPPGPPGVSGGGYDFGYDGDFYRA

B1: CID 212000: dimer of SEQ ID NO: 2 (dimer with linker between the monomers) (protein)
chain: IAAKFDEAQSAADSEILHLPNLTEQQRHYFRRWLSDDPSVSTHILTQAQHLNDDQAPKGGGGSGGGGSGGGGSGGGGSIAAKFDEAQSAADSEILHLPNLTEQQRHYFRRWLSDDPSVSTHILTQAQHLNDDQAPKSAWSHPQFEK
modifications: Col2 binding protein (dimer of 211261) (CID212000)
Regarding B1, the “binding to type I collagen (ELISA)” value in assay [1] is reported as “No unspecific binding”. In assay [2], the “binding to type III collagen (ELISA)” value is on record as “No unspecific binding”. For the same molecule, in assay [3], the “binding to type V collagen (ELISA)” value is recorded as “No unspecific binding”. Also, the “binding to domain of fibronectin (67B89) (ELISA)” value in assay [4] was “No unspecific binding”. For the same molecule, in assay [5], the “IHC staining of pig eye sections” value is “staining of retina, inner limiting membrane (arrow) and vitreous body of pig eye”.
